Data taken from the supplement of paper PMC10724198.
± gives the standard deviation of the averaged measurements.

System: Saccharomyces cerevisiae
Assay: protein stability index of tFT-peptide fusion (C-terminal peptide) (PSI (0-1 scale)); higher = more stable (slower turnover)
Settings: temperature: 30 C
Method: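 MPS profiling in S. cerevisiae of the yeast C-terminome library: the last 12 aa of each annotated ORF are fused to the C-terminus of a sfGFP-mCherry timer, after a GGGS linker. Cells are FACS-sorted into 8 mCherry/sfGFP bins and deep-sequenced. PSI runs from 0 (unstable) to 1 (stable); wild type and das1Δ backgrounds, two technical replicates each.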

[1] = genetic background: das1 deletion

Row | Sequence | protein stability index [1] | protein stability index (genetic background: wild type)
1 | LVLKQRQEQEKQ [GDI1 C-terminal 12 aa] | 0.688 ± 0.025 | 0.717 ± 0.06
2 | LVRFIEAEKFVG [SNX3 C-terminal 12 aa] | 0.7119 ± 0.003 | 0.6912 ± 0.0047
3 | LYDNIRSGNFGI [MSB1 C-terminal 12 aa] | 0.771 ± 0.008 | 0.6503 ± 0.00092
4 | MDNKQQLSSGRT [SNA3 C-terminal 12 aa] | 0.709 ± 0.016 | 0.686 ± 0.021
5 | MFKCARQSEFDK [MTG2 C-terminal 12 aa] | 0.6881 ± 0.0066 | 0.6829 ± 0.0037
6 | MKKLQNKKSSAV [CAB5 C-terminal 12 aa] | 0.695 ± 0.05 | 0.677 ± 0.021
7 | MQRVSTQHEKSS [PMA2 C-terminal 12 aa] | 0.693 ± 0.024 | 0.711 ± 0.096
8 | MQTHYILMKAQW [PPM1 C-terminal 12 aa] | 0.579 ± 0.008 | 0.5353 ± 0.0021
9 | MSSFLSKKENNN [SNT1 C-terminal 12 aa] | 0.722 ± 0.024 | 0.6618 ± 0.005
10 | MTGTCFMTDLAP [YKL097C C-terminal 12 aa] | 0.721 ± 0.024 | 0.695 ± 0.021
11 | MTLDSWQPLTPK [INP53 C-terminal 12 aa] | 0.723 ± 0.016 | 0.712 ± 0.03
12 | NEEYIEELDLVL [HSH155 C-terminal 12 aa] | 0.696 ± 0.0089 | 0.674 ± 0.015
13 | NFQTHYRDELLQ [REH1 C-terminal 12 aa] | 0.729 ± 0.054 | 0.584 ± 0.016
14 | NFVSQYRNDEIY [YOR381W-A C-terminal 12 aa] | 0.688 ± 0.032 | 0.659 ± 0.023
15 | NGHVSKKAKVTK [LYS21 C-terminal 12 aa] | 0.6885 ± 0.0043 | 0.667 ± 0.021
16 | NIAPFPFFGKRR [PMD1 C-terminal 12 aa] | 0.6837 ± 0.00075 | 0.674 ± 0.02
17 | NIEKGVNFVASK [MDH1 C-terminal 12 aa] | 0.6837 ± 0.0049 | 0.677 ± 0.052
18 | NIGDFSPDLMDS [MSS11 C-terminal 12 aa] | 0.684 ± 0.011 | 0.713 ± 0.0096
19 | NIKALNQSKSHM [SPO77 C-terminal 12 aa] | 0.684 ± 0.022 | 0.6701 ± 0.003
20 | NKKPKNKKKGRK [SRP72 C-terminal 12 aa] | 0.6842 ± 0.005 | 0.646 ± 0.0076
21 | NKRLKKILNNTK [RME1 C-terminal 12 aa] | 0.702 ± 0.014 | 0.674 ± 0.023

Row | Sequence | protein stability index [1] | protein stability index (genetic background: wild type)
22 | NKVEAFKSLYTF [NUP60 C-terminal 12 aa] | 0.705 ± 0.028 | 0.591 ± 0.013
23 | NLKNGVTLESPE [UBP12 C-terminal 12 aa] | 0.716 ± 0.01 | 0.6889 ± 0.0028
24 | NLMVADDKVWRV [MCM3 C-terminal 12 aa] | 0.696 ± 0.017 | 0.7005 ± 0.0019
25 | NLVASKQLSTYK [RAV2 C-terminal 12 aa] | 0.694 ± 0.0082 | 0.641 ± 0.031
26 | NMLFICLNVPHY [YGL114W C-terminal 12 aa] | 0.6561 ± 0.0045 | 0.632 ± 0.007
27 | NNASEDDRGIRV [STB2 C-terminal 12 aa] | 0.6973 ± 0.0012 | 0.685 ± 0.089
28 | NNIKWYLHWKFI [VPR1 C-terminal 12 aa] | 0.684 ± 0.033 | 0.168 ± 0.019
29 | NNNMESFPEMSP [GLE1 C-terminal 12 aa] | 0.726 ± 0.013 | 0.72 ± 0.017
30 | NNNNNNNDDDDK [CTK1 C-terminal 12 aa] | 0.694 ± 0.021 | 0.691 ± 0.028
31 | NQAIQYANEFQQ [HOG1 C-terminal 12 aa] | 0.701 ± 0.022 | 0.715 ± 0.043
32 | NQRKANDNKRRR [RRP17 C-terminal 12 aa] | 0.7188 ± 0.001 | 0.77 ± 0.058
33 | NQRSFNDKSKRD [CAX4 C-terminal 12 aa] | 0.692 ± 0.009 | 0.6901 ± 0.0064
34 | NSFDGLLVYLSN [CBF2 C-terminal 12 aa] | 0.6572 ± 0.0033 | 0.6615 ± 0.0065
35 | NSIVKQFKEIFK [AIM41 C-terminal 12 aa] | 0.709 ± 0.028 | 0.67 ± 0.0096
36 | NSSSNESIQVVV [SFK1 C-terminal 12 aa] | 0.706 ± 0.043 | 0.696 ± 0.037
37 | NTLRISTVGQEF [PYK2 C-terminal 12 aa] | 0.7106 ± 0.0029 | 0.707 ± 0.0074
38 | NTSGQKPNEYNY [APA1 C-terminal 12 aa] | 0.7049 ± 0.0049 | 0.698 ± 0.018
39 | NVGVIRPLLDLQ [YGR069W C-terminal 12 aa] | 0.743 ± 0.026 | 0.729 ± 0.015
40 | NVTKLAKERVLF [CPA1 C-terminal 12 aa] | 0.6847 ± 0.0048 | 0.703 ± 0.055
41 | NVYRLTLMIFRL [YMR013W-A C-terminal 12 aa] | 0.428 ± 0.016 | 0.249 ± 0.0095
42 | NWVRYSSIYYQL [YDR194W-A C-terminal 12 aa] | 0.695 ± 0.013 | 0.14 ± 0.011

Row | Sequence | protein stability index [1] | protein stability index (genetic background: wild type)
43 | NYPELPRLTFST [RFU1 C-terminal 12 aa] | 0.704 ± 0.018 | 0.691 ± 0.0092
44 | NYRLEEQDVLTW [LYS14 C-terminal 12 aa] | 0.721 ± 0.037 | 0.693 ± 0.058
45 | PAAISGTVPSIF [DIN7 C-terminal 12 aa] | 0.715 ± 0.021 | 0.677 ± 0.017
46 | PAKFGIQFQYST [MDM10 C-terminal 12 aa] | 0.697 ± 0.021 | 0.662 ± 0.038
47 | PCTASITSLISF [YDR269C C-terminal 12 aa] | 0.709 ± 0.012 | 0.731 ± 0.03
48 | PDEISFLQQFTS [KAP104 C-terminal 12 aa] | 0.721 ± 0.0076 | 0.676 ± 0.023
49 | PEAEGPTVEEVD [SSA1 C-terminal 12 aa] | 0.703 ± 0.02 | 0.694 ± 0.019
50 | PELSSTVSHNRA [WSC3 C-terminal 12 aa] | 0.693 ± 0.035 | 0.783 ± 0.07
51 | PEMTRRGRGPRR [RPA49 C-terminal 12 aa] | 0.714 ± 0.022 | 0.673 ± 0.033
52 | PFPLLRLSAPFK [OST3 C-terminal 12 aa] | 0.72 ± 0.0091 | 0.749 ± 0.061
53 | PFPLPSTERVIF [ADY2 C-terminal 12 aa] | 0.723 ± 0.02 | 0.73 ± 0.023
54 | PHYAGCLEDIIF [YER066C-A C-terminal 12 aa] | 0.719 ± 0.046 | 0.74 ± 0.035
55 | PIKEVLLENWDQ [PUS5 C-terminal 12 aa] | 0.715 ± 0.017 | 0.683 ± 0.024
56 | PIRTPDAKKPKI [BUR2 C-terminal 12 aa] | 0.715 ± 0.013 | 0.8 ± 0.13
57 | PIVHYISDRRTV [ARC15 C-terminal 12 aa] | 0.682 ± 0.013 | 0.688 ± 0.0093
58 | PKETLHRSDHQG [YPR039W C-terminal 12 aa] | 0.6938 ± 0.0051 | 0.689 ± 0.076
59 | PKFSKPDPLKRD [SAC1 C-terminal 12 aa] | 0.72 ± 0.01 | 0.6853 ± 0.005
60 | PLGEVDLNSFKN [YHP1 C-terminal 12 aa] | 0.691 ± 0.019 | 0.682 ± 0.034
61 | PLLELVMELRDR [MOB1 C-terminal 12 aa] | 0.726 ± 0.051 | 0.736 ± 0.01
62 | PLRLLIRPVGEL [YOR248W C-terminal 12 aa] | 0.679 ± 0.008 | 0.673 ± 0.042
63 | PLWNQRRDDLFH [NIT2 C-terminal 12 aa] | 0.74 ± 0.042 | 0.744 ± 0.055

Row | Sequence | protein stability index [1] | protein stability index (genetic background: wild type)
64 | PMALFGIFAVAL [AFB1 C-terminal 12 aa] | 0.5769 ± 0.0038 | 0.596 ± 0.0014
65 | PNVSYIEEKLNQ [MAS1 C-terminal 12 aa] | 0.702 ± 0.015 | 0.717 ± 0.011
66 | PPNTLWHYNFRK [MRPL28 C-terminal 12 aa] | 0.751 ± 0.024 | 0.69 ± 0.018
67 | PQGFEIIELLNF [ROM1 C-terminal 12 aa] | 0.717 ± 0.044 | 0.718 ± 0.013
68 | PRSDDEDDEDSE [FAP7 C-terminal 12 aa] | 0.683 ± 0.026 | 0.671 ± 0.025
69 | PSSDHAKSVMGE [YML101C-A C-terminal 12 aa] | 0.707 ± 0.018 | 0.6804 ± 0.0044
70 | PSTLIITTLLFK [YJR023C C-terminal 12 aa] | 0.618 ± 0.051 | 0.61 ± 0.017
71 | PSYCSLRWSHRT [YLR169W C-terminal 12 aa] | 0.7331 ± 0.006 | 0.705 ± 0.029
72 | PTPKALTNEKTH [MGR1 C-terminal 12 aa] | 0.687 ± 0.017 | 0.664 ± 0.015
73 | PTYDNNRHYGND [YFL032W C-terminal 12 aa] | 0.671 ± 0.0083 | 0.702 ± 0.018
74 | PVHLEAIDLIDC [HSP150 C-terminal 12 aa] | 0.7087 ± 0.0034 | 0.714 ± 0.024
75 | PVRMYALKPMPN [TAE1 C-terminal 12 aa] | 0.6931 ± 0.0035 | 0.665 ± 0.04
76 | PWFAPIREQIEK [CKA1 C-terminal 12 aa] | 0.722 ± 0.011 | 0.7489 ± 0.0034
77 | QAKEVFDKMQKE [FMP23 C-terminal 12 aa] | 0.7133 ± 0.0026 | 0.686 ± 0.065
78 | QARKSKSVSFYA [RPT5 C-terminal 12 aa] | 0.693 ± 0.016 | 0.692 ± 0.027
79 | QDMMSGFLGGSK [GET4 C-terminal 12 aa] | 0.69072 ± 1.9e-05 | 0.667 ± 0.0077
80 | QDNSEVVDLTSD [NFI1 C-terminal 12 aa] | 0.694 ± 0.012 | 0.6728 ± 0.006
81 | QGMLQSFLDREL [YOL057W C-terminal 12 aa] | 0.721 ± 0.023 | 0.666 ± 0.042
82 | QHSRGSPNNSNN [YKU80 C-terminal 12 aa] | 0.701 ± 0.0071 | 0.708 ± 0.039
